Measurements reported in paper PMC2680719.

Biological target: m33 T cell receptor (high-affinity CDR3α mutant of 2C, displayed on 58−/− T cell hybridoma cells) (mouse)
Experiment: flow cytometry on cells

- percent of cells positive for tetramer: 84%
Substance: SIYRYYGL/K^b tetramer (biotinylated SIY/K^b monomers on streptavidin:phycoerythrin) (from UniProt P01887 21-119) (peptide-MHC)
